From article PMC10986958 (PLOS Pathogens, 2024)

Assays:
Assay in all cases: ITC
Conditions in all cases: both partners purified
[1] = molecular target: LC3A (residues 1-121 of human LC3A) (human, UniProt Q9H492 1-121)
[2] = molecular target: T1, GABARAP (residues 1-117 of human GABARAP) (human, UniProt O95166 1-117)
[3] = molecular target: T2, LC3B (residues 1-125 of human LC3B) (human, UniProt Q9GZQ8 1-125)
[4] = molecular target: T3, GABARAPL1 (residues 1-117 of human GABARAPL1) (human, UniProt Q9H0R8 1-117)
T3 construct: also called GABARPL1
T3 sequence (Q9H0R8 whole entry, the tested form may be a part): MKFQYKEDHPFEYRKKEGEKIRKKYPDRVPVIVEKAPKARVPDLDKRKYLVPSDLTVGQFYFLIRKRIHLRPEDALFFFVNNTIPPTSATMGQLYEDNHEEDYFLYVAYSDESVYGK

[5] = molecular target: T2, LC3B (residues 1-125 of human LC3B); remark: listed apart in the source
[6] = molecular target: T3, GABARAPL1 (residues 1-117 of human …); remark: listed apart in the source
[7] = molecular target: T1, GABARAP (residues 1-117 of human …); remark: listed apart in the source

T1 sequence (O95166 whole entry, the tested form may be a part): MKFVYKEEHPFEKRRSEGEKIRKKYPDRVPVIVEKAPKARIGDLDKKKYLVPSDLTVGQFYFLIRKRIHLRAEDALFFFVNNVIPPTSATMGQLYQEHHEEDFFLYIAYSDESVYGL

B1: NSs1 (residues 2-16 of RVFV NSs) (peptide)
peptide: DYFPVISVDLQSGRR
Kd [1]: > 100 µM | Kd [2]: > 100 µM

B2: NSs4 (residues 247-265 of RVFV NSs) (peptide)
peptide: DVEMESEEESDDDGFVEVD
Kd [3]: 0.6 µM | Kd [4]: 0.49 µM | stoichiometry N [5]: 1 | stoichiometry N [6]: 1

B3: NSs3 (residues 234-255 of RVFV NSs) (peptide)
peptide: GRNNWIPVIPPIPDVEMESEEE
Kd [7]: 16 µM | Kd [1]: > 100 µM | stoichiometry N [2]: 1

B4: NSs2 (residues 53-72 of RVFV NSs) (peptide)
peptide: RLRFSDFYNVGEFPYRVGLG
Kd [1]: > 100 µM | Kd [2]: > 100 µM
